The text below walks through data of the nanobody polyreactivity screen of Harvey et al. (2022).

A short description of this data set: yeast display, Sf9 membrane polyspecificity reagent, FACS + sequencing; frameworks hold sequencing errors. In outline:
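Sorting gates, low and high (top ~1%), were placed on anti-HA fluorescence to track expression and on streptavidin fluorescence to track reagent binding. A clone's polyreactivity label is taken from the gate it came out of. The reagent was 10% biotinylated, detergent-solubilized Sf9 membrane, applied for 1 hour at 4 °C to galactose-induced yeast display cells.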
As to “QVQLVESGGGLVQAGGSLRLSCAASGSIFRVYAMGWYRHAPGKERELVATITWNGGSTYYADSVKGRFTISRDNAKNTVYLQMNSLKPEDTAVYYCAAGRDTWPSTYYYWGQGSQVTVSS”, the “polyreactivity (PSR sort gate)” value was “low polyreactivity”.
For the sequence “QVQLVESGGGLVQAGGSLRLSCAASGSIFRVYAMGWYRPAPGKERELVASISRRGGSTYYADSVKGRFTISRDNEKNTVYLHMNILKPEDTAVYYCAAEFVIGVHCYDYWGQVTQVTVSS”, the “polyreactivity (PSR sort gate)” value was “high polyreactivity”.
Next, “QVQLVESGGGLVQAGGSLRLSCAASGSIFRVYAMGWYRQAPGKERELVAAITRGGSTYADSVKGRFTISRDNAKNTVYLQMNSLKPEDTAVYYCAARVSYWGQGTQVTVSS”: “high polyreactivity”; “QVQLVESGGGLVQAGGSLRLSCAASGSIFRVYAMGWYRQAPGKERELVAGITGRGGSTYYADSVKGRFTISRDNAKNTVYLQMNSLKPEDTAVYYCNRRYRYGRDYWGQGTQVTVSS”: “high polyreactivity”; “QVQLVESGGGLVQAGGSLRLSCAASGSIFRVYAMGWYRQAPGKERELVAGITWTGTRTYYADSVKGRFTISRDNAKNTVYLQMNSLKPEDTAVYYCAARYTIRYKRYDYWGQGTQVTVSS”: “high polyreactivity”.
As for “QVQLVESGGGLVQAGGSLRLSCAASGSIFRVYAMGWYRQAPGKERELVARISRGGRTNYADSVKGRFTISRDNAKNTVYLQMNSLKPEDTSVYYCAADVVSLESYSYQSLGYDSWGQGTQVNVSS”, the “polyreactivity (PSR sort gate)” value is on record as “high polyreactivity”.
Turning to “QVQLVESGGGLVQAGGSLRLSCAASGSIFRVYAMGWYRQAPGKERELVARISWSDDGTYYADSVKGRFTISRDNAKNTVYLQMNSLKPEDTAVYYCNADSYYYPYDYWGQGTQVTVSS”, the “polyreactivity (PSR sort gate)” value is on record as “low polyreactivity”.
Next, “QVQLVESGGGLVQAGGSLRLSCAASGSIFRVYAMGWYRQAPGKERELVASISRRGGSTYYADSVKGRFTISRDYAKNTVYLQMNSLKPEDTAVYYCAAEFVIGGHGYDYWGQGTQVSVSS”: “high polyreactivity”; “QVQLVESGGGLVQAGGSLRLSCAASGSIFRVYAMGWYRQSPGKERELVASIRSRGGSTYYADSVKGRFTISRDNAKNTVYLQMNSLKPEDTAVYYCGKSYWGGDEYWGQGTQVTVSS”: “low polyreactivity”.
“QVQLVESGGGLVQAGGSLRLSCAASGSIFRVYGMGWYRQAPGKERELVAAITWSGGSTYYADSVKGRFTISRDNAKNTVYLQMNSLKPEDTAVYYCAARHKYAFWTAFGNYWGQGTQVTVSS”: the “polyreactivity (PSR sort gate)” value is listed as “high polyreactivity”.
The result for “QVQLVESGGGLVQAGGSLRLSCAASGSIFRVYGMGWYRQAPGKERELVAAITWSGGSTYYADSVKGRFTISRDNAKNTVYLQMNSLKPEDTAVYYCNADKFRRYGYWGQGTQVTVSS” reads “high polyreactivity”.
Next, “QVQLVESGGGLVQAGGSLRLSCAASGSIFRWNAMGWYRQAPRKEREMVAAIDYSGGSTYYADSVKGRFTISRDNAKKTVYLQMNSLKPEDTAVYFCADTAYYGGYLRYDYWGQGTQVTVSS”: “low polyreactivity”; “QVQLVESGGGLVQAGGSLRLSCAASGSIFRWYAMGWYRQAPGKERELVAAISTSGGNTYYADSVKGRFTISRDIAKITVYLQMKSLKPEDTAVYYCNALWYRSLSYRYDYWGQGTQVTVSS”: “high polyreactivity”; “QVQLVESGGGLVQAGGSLRLSCAASGSIFRWYAMGWYRQAPGKERELVAGITRGGRTNYADSVKGRFTISRDNAKNTVYLQMNSLKPEDTAVYYCAKVSRSKQKFDYWGQGTQVTVSS”: “high polyreactivity”.
Next, “QVQLVESGGGLVQAGGSLRLSCAASGSIFRYNAKGWYRQAPGKERELVAARRSRGGSTNYADSVKGRFTISRDNAKNTVYLQMNSLKPEDNAVYFCAADGSYTKTTIYIFGGLDFWGQGTQVTVSS”: “low polyreactivity”; “QVQLVESGGGLVQAGGSLRLSCAASGSIFRYNAMGWDRQAPGKERELVAGITWGGSTYYADSVKGRFTISRDNAKNTVYLQMNSLKPEDTAVYYCAAGRYGDYGYWGQGTQVTVSS”: “high polyreactivity”; “QVQLVESGGGLVQAGGSLRLSCAASGSIFRYNAMGWYRQAPGKERELVAAIRSGGSTYYADSVKGRFTISRDNAKNTVYLQMNSLKPEDTAVYYCNARRYVGYDYWGQGTQVTVSS”: “high polyreactivity”.
Consider “QVQLVESGGGLVQAGGSLRLSCAASGSIFRYYAMGWYRQAPGKEREFVAAISASGGSTYYADSVKGRFTISRDNAKNTVYLQMNSLKPEDTAVYYCAARYSYRRPGGYPFGSWGQGTQVTVSS”, for which the “polyreactivity (PSR sort gate)” value is recorded as “high polyreactivity”.
As to “QVQLVESGGGLVQAGGSLRLSCAASGSIFRYYAMGWYRQAPGKEREFVAAITRSGGSTTYADSVKGRFTISRDNAKNTVYLQMNSLKPEDTAVYYCNAKSSRFQVFNYGYWGQGTQVTVSS”, the “polyreactivity (PSR sort gate)” value is listed as “high polyreactivity”.
As for “QVQLVESGGGLVQAGGSLRLSCAASGSIFRYYAMGWYRQAPGKEREFVARISVSGGSTYYADSVKGRFTISRDNAKNAVYLQMNSLKPEDTAVYYCNTADFRSRYPAMGYWGQGTQVNVSS”, the “polyreactivity (PSR sort gate)” value is “low polyreactivity”.
On to “QVQLVESGGGLVQAGGSLRLSCAASGSIFRYYAMGWYRQAPGKERELVAAIRRSGASTYYADSVKGRFTISRDNAKNTVYLHMNSLKPEDTAVYYCAASSFNNGHRYDYWGQGTQVTVSS”, for which the “polyreactivity (PSR sort gate)” value is listed as “high polyreactivity”.
Turning to “QVQLVESGGGLVQAGGSLRLSCAASGSIFRYYAMGWYRQAPGKERELVAAISGSGASTYYADSVKGRFTISRDNAKNTVYLQMNSLKPEDTEVYFCAAYRGPRHHYPSVYNWGYDYWGQGTQVTVSS”, the “polyreactivity (PSR sort gate)” value was “high polyreactivity”.
The result for “QVQLVESGGGLVQAGGSLRLSCAASGSIFRYYAMGWYRQAPGKERELVAAISNRGSSTNYADSVKGRFTISRDNAKNTVYLQMNSLKPEDTAVYYCAARVRYPGLSGNMYYWGQGTQVTVSS” reads “high polyreactivity”; that for “QVQLVESGGGLVQAGGSLRLSCAASGSIFRYYAMGWYRQAPGKERELVAAITSGGRTNYADSVKGRFTISRDNAKNTVYLQMNSLKPEDSAVYYCNKGYNAVWRYRGDYWGQGTQVTVSS”, “high polyreactivity”; that for “QVQLVESGGGLVQAGGSLRLSCAASGSIFRYYAMGWYRQAPGKERELVATISSSGGTTYYADSVKGRFTISRDNAKNTVYLQMNSLKPEDTAVYYCAALWTWHVSYPVHEYDYWGQGTQVTVSS”, “low polyreactivity”.
With “QVQLVESGGGLVQAGGSLRLSCAASGSIFRYYAMGWYRQAPGKERELVATISSSGGTTYYADSVKGRFTISRDNAKNTVYLQMNSLKPEETAVYYCAALWTWHVSYPVHEYDFWGQGTQVTVSS”, the “polyreactivity (PSR sort gate)” value is on record as “low polyreactivity”.
Regarding “QVQLVESGGGLVQAGGSLRLSCAASGSIFRYYAMVWYRQAPGKERELVAAISSGGNTKYADSVKGRFTISRDNAKNTVYLQRNSLKPADTAVYYCNADGKAGGDYDYWGQGTQVTVSS”, the “polyreactivity (PSR sort gate)” value is on record as “low polyreactivity”.
In the case of “QVQLVESGGGLVQAGGSLRLSCAASGSIFRYYTMGWYRQAPGKERELVAAISSRGGSTYYADSVKGRFTISRDNAKNTVYLQMNSLKPEDTAVYYCNVLVKRAYQYTYGVDYWGQGTQVTVSS”, the “polyreactivity (PSR sort gate)” value is listed as “high polyreactivity”.
As for “QVQLVESGGGLVQAGGSLRLSCAASGSIFRYYVMGWYRQAPGKERELVASISYSVGRTYYADSVKGRFTISRDNAKNTVYLQMNSLKPEDTAVYYCAADRYWPYYSAYYTSYRMDYWGQGTQVTVSS”, the “polyreactivity (PSR sort gate)” value is recorded as “high polyreactivity”.
Next, “QVQLVESGGGLVQAGGSLRLSCAASGSIFSAYAMGWYRQAPGKERELVAAISYGGGSTYYADSVKGRFTISRDNAKNTVYLQMNSLKAEDTAVYYCAAASSGEYGYWGQGTQVTVSS”: “low polyreactivity”; “QVQLVESGGGLVQAGGSLRLSCAASGSIFSAYSMGWYRQAPGKERELVAAISKSGSSTYYADSVKGRFTISRDNANNTVYFQMNSLKPEDTAVYYCAAKRAGPYGITKGMDYWGQGTQVSVSS”: “high polyreactivity”.
Take “QVQLVESGGGLVQAGGSLRLSCAASGSIFSDNAMGWYRQAPGKERELVAAITYSGGRTSYADSVKGRFTISRDNAKNTVYLQMNSLKPEDTAVYYCAVGSHSRSSNSYYYWGQGTQVTVSS”: the “polyreactivity (PSR sort gate)” value is given as “low polyreactivity”.
Consider “QVQLVESGGGLVQAGGSLRLSCAASGSIFSDYAMGWYRQAPGEERELVAAINSGVSTSYADSVKGRFTISRDNAKNTVYLQMNSLKPEDTAVYYCAKDGSSPSPWYGGFGYWGQGTQVTVSS”, for which the “polyreactivity (PSR sort gate)” value was “low polyreactivity”.
With “QVQLVESGGGLVQAGGSLRLSCAASGSIFSDYAMGWYRQAPGKERELVAASTQSGGSTYADSLKGRFSISRDNAKNTVYLQMNSLKPEDTAVYYCADRHDKRRQYYVGQSAFDYWGQGTQVTVSS”, the “polyreactivity (PSR sort gate)” value is “low polyreactivity”.
With “QVQLVESGGGLVQAGGSLRLSCAASGSIFSDYTMGWYRQAPGKERELVAAISGIGGSTYYADSVKGRFTISRDNAKNTVYLQMNSLKPEDTAVYYCAADDYYYPYVSHDYWGQGTQVTVSS”, the “polyreactivity (PSR sort gate)” value is reported as “low polyreactivity”.
Regarding “QVQLVESGGGLVQAGGSLRLSCAASGSIFSDYVMGWSRQAPGKERELVATISRGGGSTFYADSVKGRFTISRDTAKNTVYLQMNSLKPEDTAVYYCAAPPGPSGAKYDYWGQGTQVTVSS”, the “polyreactivity (PSR sort gate)” value is “low polyreactivity”.
As to “QVQLVESGGGLVQAGGSLRLSCAASGSIFSENTMGWYRQAPGKKRELVADITSGGSTNYADSVKGRFTISRDNAKNTVYLQMNSLKPEDTAVYYCAADYNGEYDYWGQGTQVTVSS”, the “polyreactivity (PSR sort gate)” value was “low polyreactivity”.
Next, “QVQLVESGGGLVQAGGSLRLSCAASGSIFSFNAMGWYRQAPGKEREFVAAIFGVTRTYYADSVKGRFTISRDNAKNTVYLQMNSLKPEDTAVYYCAARPPYRRYSEPRFGYWGQGTQVTVSS”: “high polyreactivity”.
Turning to “QVQLVESGGGLVQAGGSLRLSCAASGSIFSFNAMGWYRQAPGKERELVAVITQRGGSTYYADSVKGRFTISRDNAKNTVYLQMNSLKPEDTAVYYCAARTPRGYYYWGQGTQVTVSS”, the “polyreactivity (PSR sort gate)” value is given as “high polyreactivity”.
The result for “QVQLVESGGGLVQAGGSLRLSCAASGSIFSFYSMGWYRQAPGKERELVSGITWSGGSTYYADSVKGRFTISRDNAKNTVYLQMNSLKPEDTAVYYCAKTKWYYWYTSFPSVQSYDYWGQGTHVTVSS” reads “high polyreactivity”.
For “QVQLVESGGGLVQAGGSLRLSCAASGSIFSFYTMGWYRQAPGKERELVASSTTYADSVKGRFTISRDNAKNTVYLQMNSLKPEDTAVYYCAAEYYSSITGWYYYWGQGTQVTVSS”, the “polyreactivity (PSR sort gate)” value was “low polyreactivity”.
